From US20210198375A1 (NANJING UMAB BIOPHARMA, published 2021)
Where two headings read alike, the source gives them in different places.

Key:
[1] = target: T1, Interferon receptors on Daudi cells (UniProt P17181); assay: cell-based or functional assay
T1 sequence (looked up) 1: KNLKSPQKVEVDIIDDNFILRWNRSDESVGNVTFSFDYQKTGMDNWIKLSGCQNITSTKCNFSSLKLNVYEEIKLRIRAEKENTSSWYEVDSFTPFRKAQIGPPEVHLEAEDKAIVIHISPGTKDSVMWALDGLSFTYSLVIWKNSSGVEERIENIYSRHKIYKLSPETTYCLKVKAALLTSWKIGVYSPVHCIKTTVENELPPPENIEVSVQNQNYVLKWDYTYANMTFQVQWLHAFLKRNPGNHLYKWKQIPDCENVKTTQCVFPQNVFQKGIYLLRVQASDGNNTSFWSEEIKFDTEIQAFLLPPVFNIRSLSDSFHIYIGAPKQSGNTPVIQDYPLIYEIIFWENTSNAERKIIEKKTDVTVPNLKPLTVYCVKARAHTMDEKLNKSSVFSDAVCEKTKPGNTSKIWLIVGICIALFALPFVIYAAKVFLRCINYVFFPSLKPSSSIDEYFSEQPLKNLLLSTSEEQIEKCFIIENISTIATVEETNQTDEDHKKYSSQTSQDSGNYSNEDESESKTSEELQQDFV
T1 sequence (looked up) 2: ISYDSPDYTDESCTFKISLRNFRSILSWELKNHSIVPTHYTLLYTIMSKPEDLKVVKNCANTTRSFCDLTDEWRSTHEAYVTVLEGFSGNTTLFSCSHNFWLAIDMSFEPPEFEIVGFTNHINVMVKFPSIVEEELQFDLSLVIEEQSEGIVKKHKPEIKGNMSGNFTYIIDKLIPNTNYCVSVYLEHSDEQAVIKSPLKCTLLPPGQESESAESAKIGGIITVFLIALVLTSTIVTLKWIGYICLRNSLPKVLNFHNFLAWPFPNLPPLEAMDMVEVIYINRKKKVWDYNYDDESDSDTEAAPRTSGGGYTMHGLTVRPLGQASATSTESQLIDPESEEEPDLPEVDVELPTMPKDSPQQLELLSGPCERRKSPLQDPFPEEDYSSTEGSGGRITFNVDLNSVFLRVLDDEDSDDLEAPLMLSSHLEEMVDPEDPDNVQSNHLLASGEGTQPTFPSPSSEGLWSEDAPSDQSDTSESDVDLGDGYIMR

[2] = target: T2, human OX40 expressed on CHO cells (human, UniProt P43489 29-277); assay: FACS on CHO cells transfected with human OX40
T2 construct: whole, on cells; also called hsOX40; CHO-hOX40
T2 sequence (looked up): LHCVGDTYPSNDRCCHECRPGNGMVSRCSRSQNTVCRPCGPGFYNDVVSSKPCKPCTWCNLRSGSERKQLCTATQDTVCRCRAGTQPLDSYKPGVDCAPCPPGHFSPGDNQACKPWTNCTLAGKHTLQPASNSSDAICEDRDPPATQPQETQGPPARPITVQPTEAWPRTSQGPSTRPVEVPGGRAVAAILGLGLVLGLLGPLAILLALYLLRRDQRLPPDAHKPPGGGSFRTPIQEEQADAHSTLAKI

[3] = target: T3, OX40 on reporter cells (Jurkat-OX40-NFκB-luciferase; HEK293-OX40-NFκB-Luc) (UniProt P43489 29-277); assay: cell-based or functional assay
T3 sequence (looked up): T2 sequence (looked up)

[4] = target: T3, OX40 on reporter cells …; assay: cell-based or functional assay; remark: listed apart in the source
[5] = target: T3, OX40 on reporter cells …; assay: cell-based or functional assay; remark: listed apart in the source
human OX40 protein [6] = target: T4, human OX40 protein (human, UniProt P43489 29-216, limits assumed); assay: ELISA, plate coated with human OX40 protein, goat-anti-human IgG HRP
T4 construct: also called TNFRSF4; CD134
T4 sequence (looked up): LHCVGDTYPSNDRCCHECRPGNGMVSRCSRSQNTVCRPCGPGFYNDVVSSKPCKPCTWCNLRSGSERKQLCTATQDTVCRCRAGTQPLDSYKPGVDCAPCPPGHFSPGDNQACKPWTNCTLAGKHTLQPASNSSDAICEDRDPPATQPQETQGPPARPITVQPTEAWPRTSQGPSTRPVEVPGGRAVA
Protocol: The next day, the plate was first washed 3 times with 300 μL PBST (Tween 20: 0.5‰), then blocked with 5% BSA/PBS at 100 μL/well for 2 h, and shaken at room temperature, followed by washing 3 times with 300 μL PBST. Gradient dilutions of the fusion protein samples were prepared in PBS, and then added to the 96-well plate at 100 μL/well; the plate was shaken for 1 h at room temperature, followed by washing 3 times with 300 μL PBST. A secondary antibody goat-anti-human IgG HRP solution was prepared and added to the 96-well plate at 100 μL/well, and the plate was shaken for 1 h at room temperature, followed by washing 4 times with 300 μL PBST. TMB was added at 100 μL/well to develop color for 20 min. 0.6N H₂SO₄ was added at 100 μL/well to stop the color development, and the OD values were determined at 450 nm.

human OX40 protein [7] = target: T4, human OX40 protein; assay: ELISA, plate coated with human OX40 protein, mouse-anti-human IgG HRP
Protocol: The next day, the plate was first washed 3 times with 300 μL PBST (Tween 20: 0.5‰), then blocked with 5% BSA/PBS at 100 μL/well for 2 h, and shaken at room temperature, followed by washing 3 times with 300 μL PB ST. Gradient dilutions of the fusion protein samples were prepared in PBS, and then added to the 96-well plate at 100 μL/well; the plate was shaken for 1 h at room temperature, followed by washing 3 times with 300 μL PBST. A mouse-anti-human IgG HRP (GenScript Biotech Corp., Art. No. A01854) solution was prepared and added into the 96-well plate at 100 μL/well, and the plate was shaken for 1 h at room temperature, followed by washing 4 times with 300 μL PBST. TMB was added at 100 μL/well to develop color for 20 min. 0.6N H₂SO₄ was added at 100 μL/well to stop the color development, and the OD (optical density) values were determined at 450 nm.

pegylated interferon α2 (Pegberon, Xiamen Amoytop Biotech, Batch No. 201811JS19) (ligand)
proliferation inhibitory activity on Daudi cells, IC50 [1]: 10600 nM

B1: MT01-L1 (antibody, V domains shown)
VH: EVQLQQSGPELVKPGASVKMSCKASGYTFTSYVMHWLKQKPGQGLEWIGYINPYNDGTKYNEKFKGKAKLTSDKSSSTAYMELSSLTSEDSAVYYCANYYGSKFAMDYWGQGTSVTVSS
VL: DIQMTQTTSSLSASLGDRVTISCRASQDISNYLSWYQRKPDGAVKLLIYYTSRLHSGVPSRFSGSGSGADYSLTISNLEQEDIATYFCQQGITLPWTFGGGTKLEIKR
EC50 [2]: 660 ng/mL

B2: MT01-C1 (antibody, human IgG1, V domains shown)
VH: EVQLVQSGAEVKKPGESLKISCKASGYTFTSYVMHWLRQMPGKGLEWMGYINPYNDGTKYNEKFKGQVTISSDKSISTAYLQWSSLKASDTAMYYCANYYGSKFAMDYWGQGTMVTVSS
VL: DIQMTQSPSSVSASVGDRVTITCRASQDISNYLSWYQQKPGGAVKLLIYYTSRLHSGVPSRFSGSGSGTDYTLTISSLQPEDFATYFCQQGITLPWTFGQGTKVEIK
notes: also called OX40 antibody MT01-C1; OX40 mAb MT01-C1
activate NFκB-luciferase reporter, EC50 [3]: 0.0452 ng/mL
Activation activity of OX40 signaling pathway EC50 [4]: 0.178 nM
Activation activity of OX40 signaling pathway EC50 [5]: 0.325 nM
EC50 (human OX40 protein [6]): 298 ng/mL

B3: MT01-C1 as described in Example 11 (human IgG4 (S228P), κ) (antibody, V domains shown)
VH: B2 VH
VL: B2 VL
notes: also called OX40 antibody MT01-C1; MT01-C1 mAb
EC50 (human OX40 protein [7]): 1.21 nM
